± gives the uncertainty stated by the source.
experiment: amyloid nucleation score (Sup35N fusion, yeast selection) (log enrichment); library NNK2; higher = more nucleation; inactive = no reads after selection
In short: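 Sup35N fusions to peptides of 20 random codons were expressed in psi-negative yeast, induced 24 hours with 100 μM copper sulfate, and grown 7 days at 30°C on medium lacking adenine and uracil. Input and output plasmid inserts were sequenced by Illumina. The nucleation score is the DiMSum log enrichment of output over input reads, centred on the mode score of non-aggregating sequences. Sequences with under 100 input reads were excluded.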

Point of comparison: TQLASIQPSVPCYIVYTVGL, amyloid nucleation score 3.01 ± 0.085. Against it:
- YWGGLCHLMSYRFTCIKYVG — lower, -0.698 ± 0.64
- RMVKLDDNVKYYVKSVEGYE — lower, 0.276 ± 0.6
- CRRRSPTNGGVNVRN — lower, 0.41 ± 0.74
- IFHPSLTSRIPINTRHKVT — higher, 4.4 ± 0.065
- LIEAESSDRGPYVPNQCGWN — lower, 1.11 ± 0.68
- VACIFCLSSPHPC — higher, 6.48 ± 0.084
- YSLLNVSHVVFTSA — lower, -0.71 ± 0.61
- DGAGKYTSPSDYDDRYRLAV — lower, 0.466 ± 0.17
- YNMGNSGLGGTRWEIICFAI — lower, -1.02 ± 0.5
- KPWTYDMVCSRFTSMWFCDY — lower, 0.644 ± 0.38
- TTVSYISERFTYLGSL — higher, 3.84 ± 0.12
- LNWIIVCLNN — higher, 4.98 ± 0.058
- QFAHFKNLWVFVLSCRWLPT — lower, -0.158 ± 0.35
- AVLLPNWSAYSGKNTSYVPV — lower, 2.13 ± 0.1
- IMSSVELWENHYCGDVCMIV — higher, 7.908 ± 0.049
- CSFSIAFWKS — lower, 0.714 ± 0.3
- CLMDTGVFREYCS — lower, -0.585 ± 0.26
- LLPWSPLKVVTSGYSTF — lower, -1.03 ± 0.78
- GVSIS — lower, -0.116 ± 0.76
- MASSPSVSIIKLFFGVEGLS — lower, -0.681 ± 1
- IMSMGGVLMFWS — higher, 3.66 ± 0.12
- SITYTNLMNTLQAIRTSFLA — lower, -0.708 ± 1.1
- TYGWSLFERKLNPRGCWFPN — lower, -0.082 ± 0.63
- LMDERGMTKMTYFVYLLKKA — lower, 0.661 ± 0.23
- ILSPTSL — lower, 1.26 ± 0.52
- KIVWCLVYNRDYYLQYRTIS — lower, -0.625 ± 0.27
- TPLTVYDFPYNEGCCAV — lower, 1.7 ± 0.34
- NFLMV — lower, 0.75 ± 0.47
- LFCSYPNTASRKLAIGIVAS — lower, 0.438 ± 0.55
- RLLNPRVSKVWICAHNARDL — lower, 1.1 ± 0.24
- SILGSSRTCILSSWWNVGTL — lower, -0.091 ± 0.8
- IMVVYETSVAGPRTSRGYCL — higher, 4.729 ± 0.041
- YRCSDLYK — lower, 2.47 ± 0.29
- KGWWGVIRDYREWFTGSRWG — lower, 0.594 ± 0.47
- GYTIPLYQYKNWGLE — lower, -0.515 ± 1
- RPLFEFWPKPPL — lower, 2.17 ± 0.14
- WAYAVNPTCYNFVGTGGSCS — lower, 2.44 ± 0.11
- SNYDGPGSYIYEKYCSSEEG — lower, -0.703 ± 1
- CDGSGCTDFVVCLHK — lower, -0.195 ± 0.31
- TPNYLSHTVVCVCINNVLIF — higher, 4.74 ± 0.058
- NNVFELCERSKLPIKKFHDV — lower, -0.615 ± 1
- WIHMSFGRLNRYMVRMRGRM — lower, -0.71 ± 1
- GQAHRFGTHLRISAGVVPPV — lower, 0.01 ± 0.32
- CITLRYYMDVRLSLHMKRTW — lower, 0.988 ± 0.53
- IGYVEAWWVFLVGSDAVRAP — lower, -0.018 ± 1.1
- GFCPLVRPSCESFRLQERLV — lower, -0.303 ± 0.63
- FEFTTCQGDRRSCFDGWGGN — lower, 2.19 ± 0.15
- YLGTDGFNDGLVGLTTNIMS — lower, -0.798 ± 0.47
- NHRAIYF — lower, 0.205 ± 0.77
- IMIMYFCCDMGRLGP — higher, 8.458 ± 0.056
- RFNWFFRHV — lower, 0.524 ± 0.81
- QVCRDDYEVDFLGCGCPRGH — lower, -0.588 ± 0.44
- TTLRPLYSTWGSQMVFPGLC — lower, 0.409 ± 0.8
- ITEYSYWSGIPSSMVSPIKH — lower, -0.459 ± 0.28
- VGGQNGCCWVVLNTSVPNSS — higher, 6.645 ± 0.052
- REWWYKKALPQCENTIGVGQ — lower, 0.721 ± 0.47
- KKVFLTFLEFVFNAISGWWV — lower, -0.67 ± 0.79
- CNTDDWK — lower, 0.496 ± 0.66
- GLMRVRYESHRMKAGSLVSR — lower, 1.89 ± 0.36
- HFSVMCTTRSKRLSIKPEWR — higher, 4.41 ± 0.097
- FINVLDSNLAQLWLLFTSWR — lower, 1.51 ± 0.14
- IKSSAFGAGVQLAAQRSVIT — lower, -0.432 ± 0.29
- DCSYYPSGIFMGLMFNLIAM — higher, 3.23 ± 0.064
- VLSCRSLSAQFSMPAFMEQS — lower, 0.972 ± 0.18
- LYREDGNMSDH — lower, 1.82 ± 0.28
- WGITGLVCV — lower, -0.674 ± 0.76
- LQCGRIV — lower, -0.204 ± 0.79
- PRGLATRPLFNRVYLHWYLL — lower, -0.639 ± 0.61
- VFVWECGAIQSLLISYMNDM — lower, -0.784 ± 0.53
- RFIND — lower, -0.703 ± 1
- IIWYTTFVDLLTIIDDGRLW — lower, 0.499 ± 0.49
- NFPAWCV — lower, 0.495 ± 0.19
- SLVFNQAHWNRLIPTT — lower, -1.02 ± 0.63
- FSQNIVSSRVVTYKMNCNGM — higher, 3.72 ± 0.044
- CAPVCFFRGSLRCRSRLTWR — lower, -0.221 ± 1.1
- SMSYTS — lower, 0.617 ± 0.14
- DSVFNMTIADECFG — lower, -1.06 ± 1.1
- STTVTLGQSICFYLSCGLRD — higher, 9.214 ± 0.051
- SRSKGYLYGIMSAKLRCSLK — lower, 0.206 ± 0.39
- YWFARCHFSPAMRIYYRTRA — lower, -0.171 ± 0.62
- WVGYLRPKKESLCLGFEDSK — within error, 3.04 ± 0.12

With FVKYRSLGKWVLRVTGVMVD the amyloid nucleation score was “inactive”.
For FGIGFGFLVHYDGRFWVYFG, the amyloid nucleation score was “inactive”.
In the case of VFTILSCWGPYRCVVTRALL, the amyloid nucleation score is reported as “inactive”.
In the case of MSSYDF, the amyloid nucleation score is reported as “inactive”.
With ASHMRSDSAL the amyloid nucleation score was “inactive”.
